Laboratory results taken from article PMC11418112.
Where a chain is given by its changes, count along the chain named. Names and notes keep the numbering of the source. Read-outs that look alike come from different tables or passages of the source. Each block holds one binder with its values, some of them ahead of it.

Assays:
[1] = target: T1, SpoIIAA-P (phosphorylated SpoIIAA) (B. subtilis) (UniProt P10727)
T1 sequence (chain, phosphoserine at 58 (32P in the labelled tracer)): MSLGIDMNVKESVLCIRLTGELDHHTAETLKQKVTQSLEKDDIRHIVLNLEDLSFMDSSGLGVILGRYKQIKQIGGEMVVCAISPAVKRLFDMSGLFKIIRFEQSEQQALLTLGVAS

[2] = target: T2, RsbV-P (phosphorylated RsbV) (B. subtilis) (UniProt P17903)
T2 sequence (chain, phosphoserine at 56 (32P)): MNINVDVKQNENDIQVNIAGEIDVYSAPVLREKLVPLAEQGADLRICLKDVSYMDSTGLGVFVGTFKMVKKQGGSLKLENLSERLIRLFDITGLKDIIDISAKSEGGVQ

[3] = target: T1, SpoIIAA-P (phosphorylated SpoIIAA) (B. subtilis); remark: listed apart in the source
[4] = target: T3, SpoIIAA^R67T, phosphorylated (B. subtilis) (UniProt P10727)
T3 sequence (chain, phosphoserine at 58): T1 sequence (chain, phosphoserine at 58 (32P in the labelled tracer)) with R67T

[5] = target: T1, SpoIIAA-P (phosphorylated SpoIIAA) (B. subtilis); remark: listed apart in the source
[6] = target: T1, SpoIIAA-P (phosphorylated SpoIIAA) (B. subtilis); remark: listed apart in the source
[7] = target: T3, SpoIIAA^R67T, phosphorylated (B. subtilis); remark: listed apart in the source
[8] = target: T1, SpoIIAA-P (phosphorylated SpoIIAA) (B. subtilis); remark: listed apart in the source
[9] = target: T2, RsbV-P (phosphorylated RsbV) (B. subtilis); remark: listed apart in the source
[10] = target: T2, RsbV-P (phosphorylated RsbV) (B. subtilis); remark: listed apart in the source

KM for SpoIIAA-P (multiple turnover, 10 mM MgCl2, Michaelis-Menten fit) [1]: 29.1 µM
kcat of SpoIIAA-P dephosphorylation (multiple turnover, 10 mM MgCl2, Michaelis-Menten fit) [1]: 0.036 min^–1
kcat/KM of SpoIIAA-P dephosphorylation (multiple turnover, 0.1 μM SpoIIE, 10 mM MgCl2) [1]: 0.001 μM^–1 min^–1
KM for RsbV-P (single turnover, varying SpoIIE, 10 mM MnCl2, Michaelis-Menten fit) [2]: 47.6 µM
kcat of RsbV-P dephosphorylation (single turnover, 10 mM MnCl2, Michaelis-Menten fit) [2]: 0.018 min^–1
kcat/KM of RsbV-P dephosphorylation (single turnover, 0.15 μM RsbV-P, 10 mM MnCl2) [2]: 0.00028 μM^–1 min^–1
fold decrease in rate of dephosphorylation of SpoIIAA-P, against SpoIIE (Fig. S6) [6]: 2 fold
fold decrease in rate of dephosphorylation of SpoIIAA^R67T, against SpoIIE (Fig. S6) [7]: 2 fold
B2: SpoIIE^I723S (phosphatase domain, SpoIIE^590-827) (domain or fragment)
chain: SYRVSTGAAHAAKGGGLVSGDSYSMMELGARKYAAAISDGMGNGARAHFESNETIKLLEKILESGIDEKIAIKTINSILSLRTTDEIYSTLDLSIIDLQDASCKFLKVGSTPSFIKRGDQVMKVQASNLPIGISNEFDVEVVSEQLKAGDLLIMMSDGIFEGPKHVENHDLWMKRKMKGLKTNDPQEIADLLMEEVIRTRSGQIEDDMTVVVVRIDHNTPKWASIPVPAIFQNKQEIS

KM for SpoIIAA-P (multiple turnover, 10 mM MgCl2, Michaelis-Menten fit) [1]: 38.6 µM
kcat of SpoIIAA-P dephosphorylation (multiple turnover, 10 mM MgCl2, Michaelis-Menten fit) [1]: 0.15 min^–1
kcat/KM of SpoIIAA-P dephosphorylation (multiple turnover, 0.1 μM SpoIIE, 10 mM MgCl2) [1]: 0.0039 μM^–1 min^–1
KM for RsbV-P (single turnover, varying SpoIIE, 10 mM MnCl2, Michaelis-Menten fit) [2]: 79.3 µM
kcat of RsbV-P dephosphorylation (single turnover, 10 mM MnCl2, Michaelis-Menten fit) [2]: 0.15 min^–1
kcat/KM of RsbV-P dephosphorylation (single turnover, 0.15 μM RsbV-P, 10 mM MnCl2) [2]: 0.0035 μM^–1 min^–1
B4: SpoIIE^P752R (phosphatase domain, SpoIIE^590-827) (domain or fragment)
chain: B2 chain with S134I, P163R

The remaining lines, values behind:

B1: SpoIIE phosphatase domain (SpoIIE^590-827) (domain or fragment)
chain: B2 chain with S134I
KM for SpoIIAA-P (multiple turnover, 10 mM MgCl2, Michaelis-Menten fit) [1]: 28.7 µM
kcat of SpoIIAA-P dephosphorylation (multiple turnover, 10 mM MgCl2, Michaelis-Menten fit) [1]: 0.39 min^–1
kcat/KM of SpoIIAA-P dephosphorylation (multiple turnover, 0.1 μM SpoIIE, 10 mM MgCl2) [1]: 0.011 μM^–1 min^–1
KM for RsbV-P (single turnover, varying SpoIIE, 10 mM MnCl2, Michaelis-Menten fit) [2]: 12.8 µM
kcat of RsbV-P dephosphorylation (single turnover, 10 mM MnCl2, Michaelis-Menten fit) [2]: 0.0086 min^–1
kcat/KM of RsbV-P dephosphorylation (single turnover, 0.15 μM RsbV-P, 10 mM MnCl2) [2]: 0.00045 μM^–1 min^–1
kobs of SpoIIAA-P dephosphorylation over time (0.1 μM SpoIIE, 0.5 μM SpoIIAA-P, 10 mM MnCl2) [3]: 0.98 min^–1
kobs of SpoIIAA^R67T dephosphorylation over time (0.1 μM SpoIIE, 10 mM MnCl2) [4]: 0.056 min^–1
KM for SpoIIAA-P as printed in the legend of Figure 4B (multiple turnover, 10 mM MgCl2) [5]: 0.39 µM

B3: SpoIIE^E675S (phosphatase domain, SpoIIE^590-827) (domain or fragment)
chain: B2 chain with E86S, S134I
KM for SpoIIAA-P (multiple turnover, 10 mM MgCl2, Michaelis-Menten fit) [1]: 18.3 µM
kcat of SpoIIAA-P dephosphorylation (multiple turnover, 10 mM MgCl2, Michaelis-Menten fit) [1]: 0.02 min^–1
kcat/KM of SpoIIAA-P dephosphorylation (multiple turnover, 0.1 μM SpoIIE, 10 mM MgCl2) [1]: 0.001 μM^–1 min^–1
KM for RsbV-P (single turnover, varying SpoIIE, 10 mM MnCl2, Michaelis-Menten fit) [2]: 95.7 µM
kcat of RsbV-P dephosphorylation (single turnover, 10 mM MnCl2, Michaelis-Menten fit) [2]: 0.063 min^–1
kcat/KM of RsbV-P dephosphorylation (single turnover, 0.15 μM RsbV-P, 10 mM MnCl2) [2]: 0.00058 μM^–1 min^–1
fold decrease in activity toward SpoIIAA-P with manganese as the metal cofactor, against SpoIIE (Fig. S5) [8]: 2 fold
kobs of SpoIIAA-P dephosphorylation over time (0.1 μM SpoIIE, 0.5 μM SpoIIAA-P, 10 mM MnCl2) [3]: 0.23 min^–1
kobs of SpoIIAA^R67T dephosphorylation over time (0.1 μM SpoIIE, 10 mM MnCl2) [4]: 0.086 min^–1

B5: SpoIIE^3X (triple mutation of E675S, I723S, and P752R; phosphatase domain) (domain or fragment)
chain: B2 chain with E86S, P163R
kcat/KM of RsbV-P dephosphorylation, fold change against SpoIIE (Fig. 4C) [9]: 5 fold
kcat of SpoIIAA-P dephosphorylation (multiple turnover, 10 mM MgCl2, Michaelis-Menten fit) [5]: 0.011 min^–1
kcat/KM of SpoIIAA-P dephosphorylation (multiple turnover, 0.1 μM SpoIIE, 10 mM MgCl2) [5]: 0.00011 μM^–1 min^–1
KM for RsbV-P (single turnover, varying SpoIIE, 10 mM MnCl2, Michaelis-Menten fit) [10]: 29.1 µM
kcat of RsbV-P dephosphorylation (single turnover, 10 mM MnCl2, Michaelis-Menten fit) [10]: 0.043 min^–1
